Experimental data as given in publication doi:10.1101/431106, “The architecture of the endoplasmic reticulum is regulated by the reversible lipid modification of the shaping protein CLIMP-63” (bioRxiv, 2018).

B1: HA-CLIMP-63 V137C (natural protein, UniProt Q07065 1-602, looked up)
chain: MPSAKQRGSKGGHGAASPSEKGAHPSGGADDVAKKPPPAPQQPPPPPAPHPQQHPQQHPQNQAHGKGGHRGGGGGGGKSSSSSSASAAAAAAAASSSASCSRRLGRALNFLFYLALVAAAAFSGWCVHHVLEEVQQCRRSHQDFSRQREELGQGLQGVEQKVQSLQATFGTFESILRSSQHKQDLTEKAVKQGESEVSRISEVLQKLQNEILKDLSDGIHVVKDARERDFTSLENTVEERLTELTKSINDNIAIFTEVQKRSQKEINDMKAKVASLEESEGNKQDLKALKEAVKEIQTSAKSREWDMEALRSTLQTMESDIYTEVRELVSLKQEQQAFKEAADTERLALQALTEKLLRSEESVSRLPEEIRRLEEELRQLKSDSHGPKEDGGFRHSEAFEALQQKSQGLDSRLQHVEDGVLSMQVASARQTESLESLLSKSQEHEQRLAALQGRLEGLGSSEADQDGLASTVRSLGETQLVLYGDVEELKRSVGELPSTVESLQKVQEQVHTLLSQDQAQAARLPPQDFLDRLSSLDNLKASVSQVEADLKMLRTAVDSLVAYSVKIETNENNLESAKGLLDDLRNDLDRLFVKVEKIHEKV
notes: Made to trap dimers through a disulfide bond; also called V137C CLIMP-63; V137C mutant; source: HeLa (control or ZDHHC6 KO), transfected 24 hours, total cell extracts or immunoprecipitated with HA-beads; not shown: HA, N-terminal, kept
B2: cytoskeleton-linking membrane protein 63 (CLIMP-63), endogenous (natural protein, human (endogenous in HeLa), UniProt Q07065 1-602, looked up)
chain: MPSAKQRGSKGGHGAASPSEKGAHPSGGADDVAKKPPPAPQQPPPPPAPHPQQHPQQHPQNQAHGKGGHRGGGGGGGKSSSSSSASAAAAAAAASSSASCSRRLGRALNFLFYLALVAAAAFSGWCVHHVLEEVQQVRRSHQDFSRQREELGQGLQGVEQKVQSLQATFGTFESILRSSQHKQDLTEKAVKQGESEVSRISEVLQKLQNEILKDLSDGIHVVKDARERDFTSLENTVEERLTELTKSINDNIAIFTEVQKRSQKEINDMKAKVASLEESEGNKQDLKALKEAVKEIQTSAKSREWDMEALRSTLQTMESDIYTEVRELVSLKQEQQAFKEAADTERLALQALTEKLLRSEESVSRLPEEIRRLEEELRQLKSDSHGPKEDGGFRHSEAFEALQQKSQGLDSRLQHVEDGVLSMQVASARQTESLESLLSKSQEHEQRLAALQGRLEGLGSSEADQDGLASTVRSLGETQLVLYGDVEELKRSVGELPSTVESLQKVQEQVHTLLSQDQAQAARLPPQDFLDRLSSLDNLKASVSQVEADLKMLRTAVDSLVAYSVKIETNENNLESAKGLLDDLRNDLDRLFVKVEKIHEKV
modifications: S-palmitoylation on Cys-100 in the majority (87%) of the cellular protein
notes: CLIMP-63 (CKAP4), endogenous protein of HeLa cells; also called CKAP4; source: endogenous, HeLa cells (membrane fraction, total cell extracts, fixed cells)

Key:
[1] = target: the molecule itself; experiment: cross-linking; disulfide trapping by an engineered cysteine; 35S Cys-Met 20 min pulse, immunoprecipitated using HA-beads, non-reducing SDS-PAGE, autoradiography; control cells and ZDHHC6 KO cells
[2] = target: the molecule itself; experiment: cross-linking; HeLa cells crosslinked 5 min at room temperature with 1mM BMOE, 1mM DSS or 0.025% glutaraldehyde; non-reducing SDS-PAGE, anti-CLIMP-63 blot

Protein	stoichiometry N [1]	stoichiometry N [2]
B1	2	–
B2	–	2
